Assay: soluble fraction after stress (log2 fold change); higher = more stays soluble; pooled small domains, quantitative proteomics
Settings: stress: 50 degC
Procedure, shortened: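 Pooled custom libraries of small protein domains were each held under stress at 50°C. The read-out, high-throughput quantitative proteomics, tracked how much of each protein stayed soluble. This is reported as a base-two log fold change used to indicate aggregation propensity. Higher values mean more protein remains in solution.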

Row | Sequence | soluble fraction (log2)
1 | HMNFSRQREIIYEQVRNFPVHPTAEEVYRALKNDNPNLSLGTVYRNLNQLSEAGMLLKIPIADGSDRFDGR | -0.492
2 | HMPKRYAGPDIIAIYGSDVFFRVGSGDGLMVIPVGRSMDNIEVVSVDAPRSVELMWKDGGPFTVPV | -0.165
3 | HMKSILSEIPGIGPKKRKSLMMQFGSVKNISEASLKDLSSTKGINSNLSKEIFNFFSVEKNN | -0.0118
4 | HMEAPMPIFWRPQFRIGHDDIDADHRYLILLINTVELVLRFPDDPRNVELALTELRRYAEDHFEREER | -0.161
5 | HMSSQVFLGQKNSIAKYDLNENKPIWTKEIKGTPLILSTWKDMLLIQIQTWVSYTHMLVKQENGQTVWE | 0.318
6 | HMKVSNWYFNGAPSATTPPTSQWTTEKDKKAHIGDTFTSLDKSPSPNAGKSWRYTPSYTWEEIV | 0.344
7 | HMRLGQLQSVEEPKFIEVHSGKQGDIGEQTIVEYEIDAKYATGDATINLKLLFRDGLFEIYNFNFSSEALL | 0.0828
8 | HMGYQLSLEAQSQLKALGLTSEYITRILDEADNRQPIPGTSRTVYSLNGYQVEFSHSDQQVIRIARG | 0.0139
9 | HMIKSIRELAEVITLWKNQGKTILIAEHRLSYLMDLADRVLYMKDGQIENDFSMADFRKIPPDEISRMGLR | -0.126
10 | HMEVPNLIGMTDKDLQRTYFQLPIEAAGDGSVVIKQLPEPGEKVKEGSVIRVLLG | 0.171
11 | HMLNENNHGEWSIRMSNGLVVRLGRDELNRSLRRSIMAYAGLAPNYRSSIEYIDARYLGGVALKTF | -0.091
12 | HMLLTHEEQIVKRGWQAPVGPFAILDSRAEAMHGDLEMLRGDREAAEQHFRRAWQIIGPIVEQ | -0.0656
13 | HMNMGKRFKELRKERKFTQQQLADRIGLAPSAISSYESGARYPSYDVLIKYSKIFHVTTDYLLG | -2.81
14 | HMTDFSDLSFKYNSEEKDVLNSINLKINGGEMTSLVGHSGAGKTTILNLIPRFYEKSKGDISIDGQSIY | -0.0832
15 | HMSVADNALSRQAIESRIALFIQNEDPNHPRSDADIQKELAQAGVVISRRAITKYRNHLHIPSASLRRR | -1.03
16 | HMYSVVGKKGIVIEDINYSTGTGQIKSEGEVWSAKTNEQINIPKGTEIEIESIDGVKVIVKPL | 0.0184
17 | HMNKYNNIEDLKEEDFENISEKYQVPVSFVKSKLDDLINWHEKNPQKNHYKNYLSALRDWVKRDSLKIKL | 0.0328
18 | HMDLGEQIIEKLRAAGGFLAITDKSPAEEIYELFATSKKNYKKAVGGLYKKGLLVIEDDGIRLTPAGR | -0.102
19 | HMWSAREQVVNSLREAILTSELKAGERLVLSDLSARLGVSVTPIREALQSLEREGLVQLMPHQEAVVV | 0.155
20 | HMEVSKETFPAYVAVDSLPVYKSASTSSSKVTTIDFGREVTVVETRGGWAKIQYGSYKGFAEIEGMSKN | -0.368
21 | HMNKFRVGDEVEIVKLDKTIQHFGGEEVLSPVGTKTYITYVDVTGKEIEIDKDIYSYHADDLTLV | 0.147
22 | HMVTDVDYSTFLSQVEEGKVESVTIEDGEILFKGKDENGEARWYITGEMNDPNLVERLKDKVPSFNAPA | 0.0853
23 | HMGGPAGPDFTYTGDDLTRIDYDDGSYKVFTYDAGKLSQIDFTSGGTTTRKTFVYSGDTLIRVDQTI | -0.44

Row | Sequence | soluble fraction (log2)
24 | HMDNVINDGMQVRFTGNVDINGTPLKIYDRIYTAEGISDDTVVLMLGNDVYARVYLSDVVPAD | -0.405
25 | HMGQLVVHQIKGEASRLDKFLVVNIPKYSRSVWREMINNGSVQVNGRVVKPHLLVKEGDIITWSS | -0.383
26 | HMIPYSDLLKLLSNDAMPKFRNKDGWAKIHALETYLASRWSYQEYGFASFTVLLETVHNAEIRNDSVRLM | -0.343
27 | HMQKAQEYILVDIKGEVQTPGVYKLPVNSRVIDAIEASGGLTKKAVTTYINLSKTLKDENVIIINKKSEL | -0.2
28 | HMKGKDLQDAVVTVVGGAENWNAIRAWAQASASDSEKREINAAFQSGKLMATMMAERLALAYQQSG | -0.0897
29 | HMDPDARQDAEVWLLDFLSAGPRTAQEIFTAARVEGHTRVTVKRAKATAGIQSVKQDFDGPWVWVLPGSG | -0.491
30 | HMRYLHTMIRVSDLEESLNFFKLLDIHEVSRKENEQARFTLVFLSATGDEKLVENAKSPLIELTFN | -0.0584
31 | HMRERLPFGFAQSKKVVLLSTESDTPKVLSVNWPSLDLYAELKRVIGRAFLLEIVSEEEFQAQVSDAYQRD | -2.24
32 | HMETYHIQMKGDPSKGIVGFSQLDMVIDKIKRLETEKGIAPYELEVLDGDTMEKYSGEEFLTMHE | 0.0939
33 | HMPSDTNLIGKTGIAYTTLRPGGTALIDDRKVDVVADSEYIEKDKKIKVIRVEGIKVVVTAVK | 0.091
34 | HMGSGKGAAHTILGISADASDDEIKAAWRKLVQENHPDKLVSQGLPDEFVQAATDRLRLINTAYQSMLNRP | -0.0378
35 | HMGVKHKHKGAGELLAALRTMFPNSSVSTLRKMLTQGRVVLNGEVVHRAKHELTDGDTIEVLERQRAER | 0.209
36 | HMSDPFSPTTTLKNRAKSVLSVDSFEDFKLFIKKMWQEKKEGVYQNPNVETWKDWDNISVKDAKILISLI | -0.474
37 | HMEERDMKGSISDLVERYADQLTDEQLEEIVLGIKNGLLEEDVKSYFFLPAEDMRRIRTALEQVR | 0.00866
38 | HMEETLLLRESVRSALAMLAPTLRITLEMYVYRQLSPTEIALRSGVSISMVRRRLGYGLYKLRTQLIDA | -0.138
39 | HMGASVGEVESVKTASEIYTAAAGKIVAVNDAVAKDPSLVNSDPYGNGWLVKLEIADLSAINA | 0.000115
40 | HMDTSAHEVLSAIRSIIEDEDKRHPLSDEAITSRLSQQGYDIARRTVAKYRERLGLPVARLRRE | -0.0213
41 | HMLAQDVIVKQDGGTILSKVLEIGTQEIAYKKWNSQDGPVYKIAKDQVLSVNYQNGEVDRFA | 0.00732
42 | HMTKGVWHTVKKGENLYRISLYYEVPQQEIKKANKIETENIVVGQKLFIPNTTKKSPIFALTP | -1.49
43 | HMFPASQPVPTDLNQIVRAGLEVFSGRLEGIDVRVSLEPELPRVNVDPEHFKRIVVNLVDNAAEAMQNS | -0.0549
44 | HMKSKNRLTKSYLDSIPGVGRKRKSILLRYFGSIDQIKRASSEDIANVPGIGKITSDLVYNYFNQ | -0.495
45 | HMKMQPVISQGVLYINNVTDVRTIEVFDISGRIVADAAASTTVNIAHLNEGPYIVKVTTVNGIESIKILNK | -0.223
46 | HMNYTSEDIKLASELFFHLLNNRILPANDVLASQYYDNNEIREILENMAEEGGLRIFGTRENLHLVSNGE | -0.432

Row | Sequence | soluble fraction (log2)
47 | HMLVGRDPQALILGSMPSEKSLEEDEYYAHPRNRFWSLMNWLLAGNKTRPAYKTGIEILSSHGIALWV | -0.263
48 | HMQQIQILPDGKIKLPDLSGTNMREAIEILHKGGLRMKPYGSGNAYQQKPAAGETVASGTTVEVLSL | 0.0457
49 | HMDRSIGDIIAELRDLSAEQVERVLAHQRETGVRFGEAAVALGYASKEDVLFALSQQFHYPYAPEE | -0.146
50 | HMTMKVTADILNMRSEASTNSDIVTKLKKDDELKVIEETKDDDGVTWVKVDFNGQVGFVSKEFLG | 0.284
51 | HMKINKQHLAFQIFGIRAKLGLSMEQFGELLGANKSSVSGWERGTVVPSSQRLKKIAELGKISLAELLTP | -1.23
52 | HMKALDTVLSEIPGLGPVRIKQLLKVFGSVDAIRKASLQDLQQIEGIGPKLAQTIYEYFHQP | ≥ 0.62
53 | HMGWTTPAGIAVGMDKSVLQDAYGKEDDTFQDKGILYYQYFVHPSRMSGLSFGIKNDKIVSITAYMD | -2.06
54 | HMVTDTGEIEAIIDRVISENPDSVSDFKNGKERALKFLMGQAMKESKGKANPQIVNELLLKKL | 0.264
55 | HMDTNAIIGLRIKNLRTEKKYTLKYLSENTGLSIGFLSQLERGMTSIAIDSLDKISKVLDVELSSFFT | -1.24
56 | HMTSLGLEGLVNTTAIATSDLRPSGWALAGERKIFVVSEGEFIDNGDKIRILTVDGNRIVVRKETNK | -0.051
57 | HMPLYKYYTSYQIEPGDTLTSIAQKYTINSDVSVQDYIDEVKKNNNLVSDKINSGSYLVVSYYSNEY | -2.35
58 | HMQKPDIEVDFAEGDMVVVTGGAWKDTAGVITGINMQKQTVTINVELFGRETPVEISFTEIKKA | 0.00574
59 | HMLKFPIGTHVGKKKPSANLSLPNKHGVVIGHGERRNAKGAIMRFYIVETTHSSRPEEWAPGITYPL | -2.5
60 | HMEAQAHYDAIYKAHPNADSIAQSAEFKAWVDAQPSVVRNAYWQLFDPKEGGTAEQIVEVFDAFVKSS | -0.151
61 | HMKIQISGSQRIDENVVVKVAGLSFPQSLLSLEPGQIESKLMQELPVQEVSVQRRLLPPGLDIQLVE | 0.0631
62 | HMAPGIGDSKYFSHIYEMKHIDTIIDNDKGDRLIEHFEIQDTPFIFTKHWTSAFGFSKRQQEIITDYLSYF | 0.0839
63 | HMLPNLWVMGPGDHLWRVAEVAMTKHLGRPVANHEIDGYWRRLVALNRESLIDPDNPDLVFAGQVIELPPF | -2.32
64 | HMPVFYVTGNRVNFRAGPSTGDRVIGSLSQGAAVEVLGPTDDAWINIRDSDGRVGYMSAQFLSQ | -0.069
65 | HMASLASVAYETLRQALDNFQYVPGDRFSESEVGQQLGMSRTPVREALVRLQREGYISVLPKMGWVVNQ | -1.64
66 | HMINITALVKQLGGVDISKFNSAFKLLQQGKPLNTISNKVMADTFVALMKNSDEALNTKFRAAFKKI | -0.272
67 | HMGYDVAEVKFRLIKLLRDSKIGISGVEISERLGINRVTMTKYLNIFSAEGVIGEKNIGNVNLWFVYEGIE | -1.68
68 | HMREGRERRLSQLLSYLRTHHILTRSEYVKLTGLSPTAASSELKTFVTAGHIVRKGIASHSTYRLPH | -1.71
69 | HMSRYLLPYAFARTQQVLLEEKSGELTLWMHSGSNLGGISEVTRKYAVQHVTHEPMDALLNRISSAYAN | -3.41
